In paper PMC5937170 one finds binding data, which are given here for two sequences.

Conditions in all cases: EMSA: 15 ul, 70 C for 15 min, buffer per Ochs et al. 2012 (not given), 8% native PAGE; footprint: same binding conditions, DNase I at 37 C
In data set [1] the target is T1, TFB-RF1 (Pyrococcus furiosus) (UniProt Q8U1W6).
T1 sequence: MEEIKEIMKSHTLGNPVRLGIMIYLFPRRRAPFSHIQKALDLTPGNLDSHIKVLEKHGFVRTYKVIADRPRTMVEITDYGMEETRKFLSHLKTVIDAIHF
Put plainly: EMSA. On the technique in general: In EMSA bound probe runs differently from free probe, usually more slowly.

In data set [2] the target is T2, TFB-RF1;TBP;TFB (Pyrococcus furiosus;Pyrococcus furiosus?;Pyrococcus furiosus?) (UniProt Q8U1W6+P62000+P61998).
T2 sequence 1: T1 sequence
T2 sequence 2: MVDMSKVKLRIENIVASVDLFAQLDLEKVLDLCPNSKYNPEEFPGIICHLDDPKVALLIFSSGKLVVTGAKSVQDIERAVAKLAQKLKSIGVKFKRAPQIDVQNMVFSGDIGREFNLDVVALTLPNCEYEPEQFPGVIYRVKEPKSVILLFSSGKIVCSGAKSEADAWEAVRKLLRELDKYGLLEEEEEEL
T2 sequence 3: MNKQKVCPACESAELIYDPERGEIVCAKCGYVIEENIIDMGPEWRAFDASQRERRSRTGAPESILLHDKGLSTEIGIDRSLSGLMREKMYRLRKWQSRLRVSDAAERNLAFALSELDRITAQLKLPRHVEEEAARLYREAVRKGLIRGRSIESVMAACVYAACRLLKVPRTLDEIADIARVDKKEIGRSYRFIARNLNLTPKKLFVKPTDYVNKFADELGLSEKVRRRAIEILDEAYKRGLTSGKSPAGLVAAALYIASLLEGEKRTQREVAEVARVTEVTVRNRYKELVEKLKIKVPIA
Put plainly: EMSA.

Data set [3] has as its target T1, TFB-RF1 (Pyrococcus furiosus). Put plainly: DNase I footprinting.

For the sequence “ACTATTTTGGAAATTAGTTAAAGCTTCTAAAAAAGCTTGTTGTTTTTCTGGGATTCAGACGGATTATTTACAAAAAAGGAAAGGAATATTGGTAGCTATA (double strand) [pf1011/1012 promoter region (EMSA)]”, the binding entry in data set [1] and in data set [2] was “binds” each time.

For the sequence “ACTATTTTGGAAATTAGTTAAAGCTTCTAAAAAAGCTTGTTGTTTTTCTGGGATTCAGACGGATTATTTACAAAAAAGGAAAGGAATATTGGTAGCTATA (double strand) [pf1011/1012 promoter region (footprint)]”, the binding entry in data set [3] is “binds”.
